According to patent publication US11549123B2, “Plant EPSP synthases and methods of use” (PIONEER HI-BRED INTERNATIONAL, INC., priority 2015, dated 2023):
Substitutions are numbered along the chain they refer to. In names and notes the source's numbering stands.

Tests used:
[1] = substrate: C=C(OP(=O)(O)O)C(=O)O; test: EPSPS substrate saturation kinetics, sunflower H6; assay type: biochemical; conditions: other: PEP varied; pH 7.0
Protocol: (§1) EPSPS activity was determined by quantifying the phosphate generated from the EPSPS reaction. Release of inorganic phosphate was coupled to reaction with 2-amino-6-mercapto-7-methylpurine ribonucleoside, catalyzed by purine-nucleoside phosphorylase (M R Webb, Proc. Natl. Acad. Sci. 89:4884-4887, 1992). The absorbance change that occurs was monitored at 360 nm, where the extinction is 11,200 M^−1 cm^−1, with a Spectramax plate reader (Molecular Devices). To determine kinetic parameters, the varied substrate was present at seven concentrations (the eighth being the blank, containing no substrate) ranging from 4 to 400 uM and the unvaried substrate present at saturation. […] Reactions were monitored with a Spectramax plate reader. […] KI was then calculated from the following form of the Michaelis-Menten equation for competitive inhibition: KI=KM[I]/(KM app−KM) KM approximates the dissociation constant of the enzyme-substrate complex while kcat is the rate of conversion of substrate to product when the substrate concentration is saturating. kcat/KM is a widely accepted parameter for catalytic efficiency when substrate concentration is low (˜KM). […] The parameter kcat/KM×KI is used to quantify both catalytic efficiency and insensitivity and thus the overall fitness of the enzyme.
(§2) Native EPSPS amino acid sequences of rice (Oryza sativa) (SEQ ID NO:7), sorghum (Sorghum halepense) (SEQ ID NO:8), and sunflower (Helianthus annus) (SEQ ID NO:9) including the chloroplast transit peptide sequences were assembled and analyzed for mapping the corresponding amino acid mutations from the maize 868-H6. […]
(§3) ChloroP Prediction Server (Emanuelsson, O. et al. 1999. Protein Sci. 8(5):978-84) was used to approximate the amino terminus of the mature EPSPS proteins. […] The synthetic genes were cloned into a plasmid vector and expressed, purified and analyzed as described in Example 1.

[2] = substrate: C=C(OP(=O)(O)O)C(=O)O; test: EPSPS substrate saturation kinetics, rice H6; assay type: biochemical, Oryza sativa; conditions: other: PEP varied; pH 7.0
Protocol: as §1, §2, §3

[3] = substrate: C=C(OP(=O)(O)O)C(=O)O; test: EPSPS substrate saturation kinetics, 868-H6; assay type: biochemical, Zea mays; conditions: other: PEP varied; pH 7.0
Protocol: (§4) EPSPS activity was determined by quantifying the phosphate generated from the EPSPS reaction. Release of inorganic phosphate was coupled to reaction with 2-amino-6-mercapto-7-methylpurine ribonucleoside, catalyzed by purine-nucleoside phosphorylase (M R Webb, Proc. Natl. Acad. Sci. 89:4884-4887, 1992). The absorbance change that occurs was monitored at 360 nm, where the extinction is 11,200 M^−1 cm^−1, with a Spectramax plate reader (Molecular Devices). To determine kinetic parameters, the varied substrate was present at seven concentrations (the eighth being the blank, containing no substrate) ranging from 4 to 400 uM and the unvaried substrate present at saturation. Six microliters of 50-fold concentrated stock solutions of the varied substrate were placed in the wells of the 96-well assay plate and reactions were started with the addition of a mixture containing 25 mM Hepes, pH 7, 100 mM KCl, 0.3 mM 2-amino-6-mercapto-7-methylpurine ribonucleosde, 1 uM (1 unit/ml) purine-nucleoside phosphorylase (Sigma N8264) and 200 uM of the non-varied substrate. Reactions were monitored with a Spectramax plate reader. The Michaelis-Menten kinetics protocol of the Spectramax software was customized for the substrate concentrations used. The software returns values of KM and Vmax using the Lineweaver-Burke transformation of the Michaelis-Menten equation. To determine kcat, Vmax (uM/min) was divided by the enzyme concentration (uM). […] KI was then calculated from the following form of the Michaelis-Menten equation for competitive inhibition: KI=KM[I]/(KM app−KM) KM approximates the dissociation constant of the enzyme-substrate complex while kcat is the rate of conversion of substrate to product when the substrate concentration is saturating. kcat/KM is a widely accepted parameter for catalytic efficiency when substrate concentration is low (˜KM). […] The parameter kcat/KM×KI is used to quantify both catalytic efficiency and insensitivity and thus the overall fitness of the enzyme.
(§5) From the functional diversity identified for each, combinatorial libraries were constructed and screened. […]

[4] = substrate: C=C(OP(=O)(O)O)C(=O)O; test: EPSPS substrate saturation kinetics, 771-C2; assay type: biochemical, Zea mays; conditions: other: PEP varied; pH 7.0
Protocol: as §4, §5

[5] = substrate: C=C(OP(=O)(O)O)C(=O)O; test: EPSPS substrate saturation kinetics, 123-C1; assay type: biochemical, Zea mays; conditions: other: PEP varied; pH 7.0
Protocol: as §4, with “enzyme. […]” for “enzyme.”

[6] = substrate: C=C(OP(=O)(O)O)C(=O)O; test: EPSPS substrate saturation kinetics, sorghum H6; assay type: biochemical, Sorghum halepense; conditions: other: PEP varied; pH 7.0
Protocol: as §1, §2, §3

[7] = substrate: C=C(OP(=O)(O)O)C(=O)O; test: EPSPS substrate saturation kinetics, native sorghum; assay type: biochemical, Sorghum halepense; conditions: other: PEP varied; pH 7.0
Protocol: as §1, §2, §3

[8] = substrate: C=C(OP(=O)(O)O)C(=O)O; test: Substrate saturation kinetic analysis with glyphosate, Zm-T103I; assay type: biochemical, Zea mays; conditions: other: substrate saturation
[9] = substrate: C=C(OP(=O)(O)O)C(=O)O; test: Substrate saturation kinetic analysis with glyphosate, Zm-A189T; assay type: biochemical, Zea mays; conditions: other: substrate saturation
[10] = substrate: C=C(OP(=O)(O)O)C(=O)O; test: Substrate saturation kinetic analysis with glyphosate, Zm-T103A; assay type: biochemical, Zea mays; conditions: other: substrate saturation

B1: Helianthus annuus EPSPS with 868-H6 mutations, SEQ ID NO:10 (Helianthus annuus; … (protein)
chain: ATTRKWSTAPEEIVLKPIKEISGTVNLPGSKSLSNRILLLAALAEGTTVVDNLLNSDDVHYMLGALRALGLNVEENGQIKRATVEGCGGRFPVGKEAKDEIQLFCGNAATAMRPLTAAVTAAGGNSSYILDGVPRMRERPIGDLVTGLKQLGADVDCFLGTNCPPVRVAANGGLPGGKVKLSGSISSQYLTALLMAAPLALGDVEIEIIDKLISLPYVEMTLKLMERFGVSVEHSDSWDKFYVRGGQKYKSPGNAYVEGDASSASYFLAGAAITGGTVTVEGCGTASLQGDVKFAEVLGQMGAEVTWTSNSVTVRGPPRNASGRGHLRPVDVNMNKMPDVAMTLAVVALYADGPTAIRDVASWRVKESERMIAICTELRKLGATVEEGPDYCVITPPGKLNVTAIDTYGDHRMAMAFSLAACGDVPVTIKDPGCTRKTFPDYFERLEQFTKH
Km [1]: 37.2 µM | kcat [1]: 3.52 s⁻¹ | kcat/Km [1]: 100000 M⁻¹ s⁻¹

B2: Oryza sativa EPSPS with 868-H6 mutations, SEQ ID NO:11 (Oryza sativa; A482G/A67R/A69W/D368S/D468G/E457G/G168A/I274L/K149R/L164C/T345A/T427S/T507Q/V137Q/V504R) (protein)
chain: APARKWEEIVLQPIREISGAVQLPGSKSLSNRILLLSALSEGTTVVDNLLNSEDVHYMLEALKALGLSVEADKQAKRAVVVGCGGRFPVEKDAKEEVQLFCGNAATAMRPLTAAVTAAGGNATYVLDGVPRMRERPIGDLVVGLKQLGADVDCFLGTECPPVRVKGIGGLPGGKVKLSGSISSQYLSALLMAAPLALGDVEIEIIDKLISLPYVEMTLRLMERFGVKAEHSDSWDRFYIKGGQKYKSPGNAYVEGDASSASYFLAGAAITGGTVTVQGCGTASLQGDVKFAEVLEMMGAKVTWTSTSVTVTGPPREPYGKKHLKAVDVNMNKMPDVAMTLAVVALFADGPTAIRDVASWRVKESERMVAIRTELTKLGASVEEGPDYCIITPPGKLNITAIDTYGDHRMAMAFSLAACGDVPVTIRDPGCTRKTFPNYFDRLSQFVRN
Km [2]: 28.9 µM | kcat [2]: 4.88 s⁻¹ | kcat/Km [2]: 167000 M⁻¹ s⁻¹

B3: Zea mays EPSPS variant 868-H6 (A2R, A4W, A72Q, K84R, L98C, G102A, I208L, T279A, E302S, T361S, E391G, D402G, A416G, V438R, T441Q), SEQ ID NO:5 (Zea mays; … (protein)
chain: MRGWEEIVLQPIKEISGTVKLPGSKSLSNRILLLAALSEGTTVVDNLLNSEDVHYMLGALRTLGLSVEADKQAKRAVVVGCGGRFPVEDAKEEVQLFCGNAATAMRPLTAAVTAAGGNATYVLDGVPRMRERPIGDLVVGLKQLGADVDCFLGTDCPPVRVNGIGGLPGGKVKLSGSISSQYLSALLMAAPLALGDVEIEIIDKLISLPYVEMTLRLMERFGVKAEHSDSWDRFYIKGGQKYKSPKNAYVEGDASSASYFLAGAAITGGTVTVEGCGTASLQGDVKFAEVLEMMGAKVTWTSTSVTVTGPPREPFGRKHLKAIDVNMNKMPDVAMTLAVVALFADGPTAIRDVASWRVKESERMVAIRTELTKLGASVEEGPDYCIITPPGKLNVTAIDTYGDHRMAMAFSLAACGEVPVTIRDPGCTRKTFPDYFDRLSQFVKN
Km [3]: 24.0 µM | kcat [3]: 6.43 s⁻¹ | kcat/Km [3]: 268000 M⁻¹ s⁻¹

B4: Zea mays EPSPS variant 771-C2 (A4W, H54M, L98C, G102A, K173R, I208L, K243E, E302S, T361S, E391P, D402G, A416G, V438R, S440R, T441Q, F442V), SEQ ID NO:4 (Zea … (protein)
chain: B3 chain with R2A, H54M, Q72A, R84K, K173R, K243E, A279T, G391P, S440R, F442V
Km [4]: 21.0 µM | kcat [4]: 5.8 s⁻¹ | kcat/Km [4]: 275000 M⁻¹ s⁻¹

B5: Zea mays EPSPS variant 123-C1 (A2R, A4W, K84R, L98C, G102A, I208L, K243E, E391P, D402G), SEQ ID NO:6 (Zea mays; A1R/A3W/D401G/E390P/G101A/I207L/K242E/K83R/L97C) (protein)
chain: B3 chain with Q72A, K243E, A279T, S302E, S361T, G391P, G416A, R438V, Q441T
Km [5]: 24.2 µM | kcat [5]: 7.3 s⁻¹ | kcat/Km [5]: 302000 M⁻¹ s⁻¹

B6: Sorghum halepense EPSPS with 868-H6 mutations, SEQ ID NO:12 (Sorghum halepense; … (protein)
chain: B3 chain with M1A, R61N, V161I, E313Q
Km [6]: 30.6 µM | kcat [6]: 5.28 s⁻¹ | kcat/Km [6]: 167000 M⁻¹ s⁻¹

B7: Sorghum halepense EPSPS, native, SEQ ID NO:8 (Sorghum halepense) (protein)
chain: AAGAEEIVLQPIKEISGTVKLPGSKSLSNRILLLAALSEGTTVVDNLLNSEDVHYMLGALNTLGLSVEADKVAKRAVVVGCGGKFPVEDAKEEVQLFLGNAGTAMRPLTAAVTAAGGNATYVLDGVPRMRERPIGDLVVGLKQLGADVDCFLGTDCPPVRINGIGGLPGGKVKLSGSISSQYLSALLMAAPLALGDVEIEIIDKLISIPYVEMTLRLMERFGVKAEHSDSWDRFYIKGGQKYKSPKNAYVEGDASSASYFLAGAAITGGTVTVEGCGTTSLQGDVKFAEVLEMMGAKVTWTETSVTVTGPPRQPFGRKHLKAIDVNMNKMPDVAMTLAVVALFADGPTAIRDVASWRVKETERMVAIRTELTKLGASVEEGPDYCIITPPEKLNVTAIDTYDDHRMAMAFSLAACAEVPVTIRDPGCTRKTFPDYFDVLSTFVKN
Km [7]: 17.4 µM | kcat [7]: 50.9 s⁻¹ | kcat/Km [7]: 2.93e+06 M⁻¹ s⁻¹

B8: Zea mays EPSPS variant Zm-T103I (Zea mays; T102I) (protein)
chain: B7 chain with A1M, N61R, V72A, T103I, I161V, Q313E
notes: native maize plus T103I; E. coli BL21(DE3), Ni-NTA purified
Km [8]: 171 µM | kcat [8]: 5.33 s⁻¹

B9: Zea mays EPSPS variant Zm-A189T (Zea mays; A188T) (protein)
chain: B7 chain with A1M, N61R, V72A, I161V, A189T, Q313E
Km [9]: 307 µM | kcat [9]: 4.3 s⁻¹

B10: Zea mays EPSPS variant Zm-T103A (Zea mays; T102A) (protein)
chain: B7 chain with A1M, N61R, V72A, T103A, I161V, Q313E
notes: native maize plus T103A; E. coli BL21(DE3), Ni-NTA purified
Km [10]: 292 µM | kcat [10]: 7.52 s⁻¹
